Test results published in the supplement of paper PMC9170038.

Test system: MS2 coat protein
Test: apparent KD of MS2 coat protein; higher = weaker reporter binding
Conditions: Eterna round: R107
Summary of the method: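 Values are apparent KD, taken as the median for each design of fits to normalised binding curves from individual clusters. The designed RNA switches were transcribed on-chip from Illumina sequencing clusters and exposed to SNAP-549-labelled MS2 coat protein at twofold increasing amounts from 0.7 or 1.5 nM to 3 µM. Titration used 100 mM Tris-HCl pH 7.5, 80 mM KCl and 4 mM MgCl2, without or with constant ligand.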

[1] = input ligand: theophylline 20 uM
[2] = input ligand: theophylline 2 mM
[3] = input ligand: tryptophan 2.4 mM

Sequence | apparent KD of MS2 coat protein (input ligand: arginine 13.2 mM) | apparent KD of MS2 coat protein [1] | apparent KD of MS2 coat protein [2] | apparent KD of MS2 coat protein (input ligand: none) | apparent KD of MS2 coat protein [3]
GGAUAGGACACGGCCGCCACUGCGCUAGGAUACUAGAACAUUUCCUCACAUGAGGAUCACCCAUGUAGGACCGGGUGUCCUAUCG | 34 nM | 76.7 nM | 60.4 nM | – | –
GGAUAGGACAGAAGGAGCGACAUGGCAGAAACUGCAAUCCUCCUACACGAGGAUCACCCGUGUCAGGUAGGUCGCUGUCCUAUCG [ArgXB 12 #Zipper #MS2Left #StaticStem #Blueprint] | 25.6 nM | 34.8 nM | 36.9 nM | 24.7 nM | 27.4 nM
GGAUUCGGCACGGCCGCCACUGCGGUGGUGUGACAUGAGGAUCACCCAUGUUGUCAUGCGGCCCUUAGGACCGGGUGGCGUUUCC [#1 Exclusion - Tryptophan B Attempt #21 (HarryS)] | 47.1 nM | 76.2 nM | 73.3 nM | – | –
GGCAAAAGGUCGGCCGCCACUGUAGGAUGUGUUCUUUCACAUGAGGAUCACCCAUGUUGUUAUUAUAGGACCGGGAUUUUAGGAC [39MS split4] | 20.6 nM | 31.7 nM | 23.4 nM | – | –
GGCCAAAAGGCGGCCGCCACUCAAGAGUAGCAUGGAAAGACAUGAGGAUCACCCAUGUAAAGAAAGAGGACCGGGCCAAAAGGCC | 28.4 nM | 141 nM | 262 nM | 117 nM | 193 nM
GGCGCGAGCCAACAUGAGGAUCACCCAUGUCGAGGACCGGUACGGCCGCCACUCGAACGAGUGGCGCGCGCGCGCGCGCGCGCGC [Vaa] | 12.2 nM | 17.9 nM | 19 nM | 15.9 nM | 28.6 nM
GGCGCUGCGUCGGCCGCCACUAGCGGGUAAUGGGUGUACAUGAGGAUCACCCAUGUAAUAUGGCCUAGGACCGGGACGUGGCGCC [Moose] | 259 nM | 415 nM | 465 nM | 427 nM | 620 nM
GGGAAAGAAUGUGAUACCAGAGAACCGGUCUCCAUCAAUAUACAUGAGGAUCACCCAUGUCUCCCUUGGCAGCACCAUCAUCAAA [Exclusion Theophylline B GF 27] | 21 nM | 28.3 nM | – | – | 22 nM
GGGAGGUAGGCGGCCGCCACUGAUUUUCAUAUAUAUAUAACAUGAGGAUCACCCAUGUAGAUAUACAGGACCGGGCCUAUUUUUU [aaaF] | 30.2 nM | 21.9 nM | 18.2 nM | 18.8 nM | 14.2 nM
GGGCAAGAGGGAAGGAGCGUCGGCUGAGUAACAUGAGGAUCACCCAUGUAGCACAUAGUGUGGCAGGUAGGUCGCCCUCUGCCCU [SS-ArgB7] | 17.5 nM | 16.9 nM | 13.7 nM | 11.3 nM | 13.2 nM
GGGCAAGAGGGAAGGAGCGUUAGCUGAGUCACAUGAGGAUCACCCAUGUCGCACAUAGUAUGACAGGUAGGUCGCCCUCUACCCU [SS-ArgB14] | 17.7 nM | 28.7 nM | 18.2 nM | 15.6 nM | 16.8 nM
GGGCCCGGCCGAAAGGCCGGGCCCGCUGAAGGAGCGGGAAAUAACCCAGGUAGGUCGCAGAGAUCCACAUGAGGAUCACCCAUGU [#26 Exclusion - Arginine A] | 38.7 nM | 64.1 nM | 68.1 nM | 26.5 nM | 44.4 nM
GGGCUCGGAGUGCGGCGUGUUCCGCUCCGUCGAGGACCGGUACGGCCGCCACUCGACAUGAGGAUCACCCAUGUCCGAGCGCGCG [#1 Exclusion - Tryptophan A Attempt #6 (HarryS)] | 19.2 nM | 41.7 nM | 51.4 nM | 21.2 nM | 9.64 nM
GGGUCGGGCGCGGCCGCCACUGCGGUGAUGUGACAUGAGGAUCACCCAUGUUGUCAUGUGGCACAUAGGACCGGGCGCCCGGCCC [#1 Exclusion - Tryptophan B Attempt #8 (HarryS)] | 34.7 nM | 46.8 nM | 34.7 nM | 29.1 nM | 29.1 nM
GGUACAUGAGGAUCACCCAUGUAUUAGUGCCGAGGACCGGUACGGCCGCCACUCGCUUCACAUGAGGAUCACCCAUGUGUCACAG [SSTA DOUBLE!!! :-D #13] | 22.4 nM | 38.4 nM | 39.7 nM | – | –
GGUAGCAGGACUGAUACCAGUCCAGCGAAUCAUACGACGCAACAUGAGGAUCACCCAUGUGACCCUUGGCAGCAGACUGCUACCG [Same State Theophylline B GF 28] | 29.4 nM | 24.8 nM | – | – | 26.7 nM
GGUGGCGGGACUGAUACCAGCCACCACCGAUAGACCACAUGAGGAUCACCCAUGUUGGGUGGCCCUUGGCAGCAGUCUUGCGGCG [#1 Same State - Theophylline B Attempt #15 (HarryS)] | 85.5 nM | 491 nM | 81.5 nM | 527 nM | 1290 nM
GGUUCAUCGUCGGCCGCCACUCACAUGAGGUGGAGCUGUAAACAUGAGGAUCACCCAUGUUGUUAGAGGACCGGGACGUGACGGC [theeternabot_exclusion_MS2_Trp_B_6] | 25.5 nM | 43.4 nM | 42.1 nM | – | –
GUAGCGACGACGGCCGCCACUCACAGGUGAGGGUAGACCAACCUUCACAUGAGGAUCACCCAUGUGAGGACCGGGUUGUCGCUAC [#12 Exclusion Tryptophan B] | 57.5 nM | 109 nM | 81.4 nM | 79 nM | 168 nM

Sequence | apparent KD of MS2 coat protein (input ligand: arginine 13.2 mM) | apparent KD of MS2 coat protein [1] | apparent KD of MS2 coat protein [2] | apparent KD of MS2 coat protein (input ligand: none) | apparent KD of MS2 coat protein [3]
GUAGGUCACCUCAUGAGACCUACCCUGGAAGGAGCGAGCGAAAGCUCAGGUAGGUCGCCAGAAACAUGAGGAUCACCCAUGUAAU [(A)''-(M)'-(A)'-(Arg1)-(Arg2)-(M1)-(M2)_Design3] | 29.4 nM | 150 nM | 190 nM | 51.1 nM | 44.6 nM
GUAGGUCAGUGAUCCCGACCUACACUGGAAGGAGCGAGCGAAAGCUCAGGUAGGUCGCCAGAAACAUGAGGAUCACCCAUGUAAU [(A)''-(M)'-(A)'-(Arg1)-(Arg2)-(M1)-(M2)_Design1] | 76.1 nM | 153 nM | 219 nM | 172 nM | 118 nM
GUAUAAAGAAAACUUUAUACAGUGGGUGAACGAGGACCGGUACGGCCGCCACUCGGACAUGAGGAUCACCCAUGUCCAUGUGAAA [AstrosExyTryA#9] | 14.4 nM | 13.9 nM | 17 nM | 14.3 nM | 37.2 nM
GUAUAUAUGCGAAGGAGCGGGAAAUAUAUAUAUAUAAUCCUAACAUGAGGAUCACCCAUGUCCCAGGUAGGUCGCGCAUAUAUAU [12.B] | 68.7 nM | 86.9 nM | 83.6 nM | 69.6 nM | 76.1 nM
GUCAGUGACUGAAGGAGCGACAUGAGGAUCACCCAUGUCUCCCGUUAUGGGAGUUCCUUAGGUCAGGUAGGUCGCAGUCACUGAC [#1 Exclusion - Arginine B Attempt #29 (Inspired by Omei)] | 174 nM | 163 nM | 188 nM | 123 nM | 95.7 nM
GUCGCUGAGGGAAGGAGCGUGAAGACAUGAGGAUCACCCAUGUAGAGGCGCCGAAGGCGUUCGCAGGUAGGUCGCCCUCAGUGAC [#1 Same State - Arginine B Attempt #22 (HarryS)] | 42.4 nM | 23.2 nM | 16.7 nM | 19.3 nM | 16.8 nM
GUCGGUACGUCGGCAAAGCCGAUGUGCCAGCGAGGACCGGUACGGCCGCCACUCGUACAUGAGGAUCACCCAUGUCCGGUCCGGC [Omei Trp SS A C v2] | 32.5 nM | 84.4 nM | 92.4 nM | – | –
GUGGAGACAUGAGAUACCAGUCUCUUUAACAUGAGGAUCACCCAUGUAAUGCUCCUCGGAGACCCUUGGCAGCUCAGUAUGAUGA [#09 Exclusion-TheophyllineB] | 32.2 nM | 71.7 nM | – | – | 34.4 nM
GUUAUGAUAAGAAGGAGCGUCGAAAAUGGGUAAACAUGAGGAUCACCCAUGUAAAGGGAACGACAGGUAGGUCGCUUAUUAUAAC [AstromonsSSArgB#20] | 86.8 nM | 270 nM | 161 nM | 190 nM | 154 nM
GUUGAGACCUCGGCCGCCACUCGCCAUGAGGAUCUCCCAUGUAACAUGAGGAUCACCCAUGUACUGAGGACCGGGAGGUCCUAGU [Same State Tryptophan B GF 15] | 17.2 nM | 34 nM | 33.5 nM | 17.4 nM | 65.6 nM
GUUUAGAGCUCGGCCGCCACUCAAACAUGAGGAUCACCCAUGUAAAACAUGAGGAUCACCCAUGUGAGGACCGGGAGAAAUAAGA [Exclusion Tryptophan B GF7] | 242 nM | 370 nM | 435 nM | 337 nM | 420 nM
UAAAACAUGAGGAUCACCCAUGUAAAAGAUACCAGAGUGAUGAUCCUCCCUUGGCAGCUUAACGCUGAUUGAUUACAAUCAGCGA [Mat - Same State Theophlline A - Mod of Eli - D21] | 75.4 nM | 124 nM | – | – | 53.3 nM
UAACAUGAGGAUCACCCAUGUAAACUAAGUCGAGGACCGGUACGGCCGCCACUCGAAAUUGAAGAAUUGGCGGAAAAUGUAUGUU [JR_ExcTryptoA_Sub018] | 12 nM | 17.7 nM | 13.3 nM | – | –
UAAUAAGUACCGGUCCUCAGAUCCUCAUGACGAGGACCGGUACGGCCGCCACUCGAAACAUGAGGAUCACCCAUGUAAUAAUAAC [Brourdmod03] | 23 nM | 77 nM | 45.2 nM | – | –
UAGACGGCCGGAAGGAGCGGUACAUGAGGAUCACCCAUGUACUUCUGGGCAUCCGUAGUGUGCCAGGUAGGUCGCCGGUUGCGGG [XArg-B20] | 45.9 nM | 32.4 nM | 33.1 nM | 14.4 nM | 19.9 nM
UAGCGAUAAUCUGAUACCAGACGUGUACUCUCCUCAGACAUGAGCAUCAGCCAUGUAUGCGUCCCUUGGCAGCAGAGAUAGGAGA [Theo B Ex t5b] | 16.9 nM | 24.5 nM | 36.7 nM | 16.1 nM | 16.9 nM
UAGUUAGCGGCGGCCGCCACUCGAGAUAUAACAUGAUAUCAUAACAUGAGGAUCACCCAUGUCACGAGGACCGGGCCGAUCUUCA [Same State Typptophan B GF6] | 27.9 nM | 102 nM | 163 nM | 48.5 nM | 49.4 nM
UAUAUAUAAACAUGAGGAUCACCCAUGUAACGAGGACCGGUACGGCCGCCACUCGGCCGGCAAGGGAGAGGACGGGAAACCGUCG [ETA NP+V+V2 #27] | 12.5 nM | 19.3 nM | 15.9 nM | 13.4 nM | 17.1 nM
UAUAUAUAUAUGGAUACCAGCAGAGAAAACGUUUAUCCUAACAUGAGGAUCACCCAUGUAUGCCCUUGGCAGCUGUAUAUAUAUA [8.G] | 21.4 nM | 29.5 nM | – | – | 24.7 nM
